Experimental data taken from PMC9943068.

Tests used:
[1] = molecular target: DNMT1 (Homo sapiens) (UniProt P26358); conditions: cited from earlier work
[2] = molecular target: hUSP7 residues 561-1102 (human) (UniProt Q93009); assay: ITC; 20 µM USP7(561-1102) in the cell titrated with 1.2 mM PAF15 at 293 K; 10 mM HEPES pH 7.5, 150 mM NaCl, 0.25 mM TCEP; one-site model

Sequence of UniProt P26358 (P26358 whole entry, the tested form may be a part): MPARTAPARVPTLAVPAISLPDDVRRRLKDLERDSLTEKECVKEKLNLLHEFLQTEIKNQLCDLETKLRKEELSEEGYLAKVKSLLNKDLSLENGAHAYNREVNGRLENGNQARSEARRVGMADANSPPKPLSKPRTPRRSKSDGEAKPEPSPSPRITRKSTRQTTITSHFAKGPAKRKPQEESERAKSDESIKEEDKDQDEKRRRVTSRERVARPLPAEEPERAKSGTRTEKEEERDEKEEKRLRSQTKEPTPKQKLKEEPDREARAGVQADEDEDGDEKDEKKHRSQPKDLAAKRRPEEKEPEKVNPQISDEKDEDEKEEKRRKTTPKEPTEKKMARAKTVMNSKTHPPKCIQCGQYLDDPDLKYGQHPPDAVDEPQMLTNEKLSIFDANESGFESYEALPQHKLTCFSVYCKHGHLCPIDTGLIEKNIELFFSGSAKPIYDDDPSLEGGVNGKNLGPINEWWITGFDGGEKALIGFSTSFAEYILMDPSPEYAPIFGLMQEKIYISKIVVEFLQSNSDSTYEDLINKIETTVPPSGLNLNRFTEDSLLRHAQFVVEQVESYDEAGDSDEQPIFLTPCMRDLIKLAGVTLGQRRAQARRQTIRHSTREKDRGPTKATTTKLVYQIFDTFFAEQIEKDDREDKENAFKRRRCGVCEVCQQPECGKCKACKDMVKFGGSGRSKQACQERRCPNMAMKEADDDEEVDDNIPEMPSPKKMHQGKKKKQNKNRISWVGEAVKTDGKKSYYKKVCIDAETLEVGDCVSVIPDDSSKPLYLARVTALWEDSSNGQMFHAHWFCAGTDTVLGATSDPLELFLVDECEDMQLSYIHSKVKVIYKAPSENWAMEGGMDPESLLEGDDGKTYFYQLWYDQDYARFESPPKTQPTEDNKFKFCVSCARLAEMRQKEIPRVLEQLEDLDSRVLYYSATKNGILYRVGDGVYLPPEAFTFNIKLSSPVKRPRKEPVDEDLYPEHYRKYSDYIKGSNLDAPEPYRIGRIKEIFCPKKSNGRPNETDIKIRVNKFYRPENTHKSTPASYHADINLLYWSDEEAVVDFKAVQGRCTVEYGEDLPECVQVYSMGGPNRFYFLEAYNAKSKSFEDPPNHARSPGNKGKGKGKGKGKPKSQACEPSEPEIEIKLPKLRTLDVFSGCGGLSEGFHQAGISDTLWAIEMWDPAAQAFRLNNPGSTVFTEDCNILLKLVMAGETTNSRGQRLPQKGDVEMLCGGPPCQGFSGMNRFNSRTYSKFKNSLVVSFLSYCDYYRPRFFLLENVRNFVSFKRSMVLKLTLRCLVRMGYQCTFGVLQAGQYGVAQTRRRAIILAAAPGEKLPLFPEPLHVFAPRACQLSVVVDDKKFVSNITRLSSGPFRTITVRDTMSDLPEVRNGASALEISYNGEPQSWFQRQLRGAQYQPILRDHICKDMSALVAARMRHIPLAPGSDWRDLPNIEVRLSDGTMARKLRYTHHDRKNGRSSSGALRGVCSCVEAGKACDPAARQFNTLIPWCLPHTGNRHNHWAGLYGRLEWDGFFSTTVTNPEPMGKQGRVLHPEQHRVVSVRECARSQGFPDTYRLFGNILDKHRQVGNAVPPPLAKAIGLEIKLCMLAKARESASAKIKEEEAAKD

Substance	Kd [1]	Kd [2]
USP7 561-1102 (from UniProt Q93009)	600 nM	
full-length hPAF15 wild-type, C-terminal FLAG tag (from UniProt Q15004 1-111) (natural protein)		32.7 µM
